Data reported in PMC5772613, “Phosphorylation induced cochaperone unfolding promotes kinase recruitment and client class-specific Hsp90 phosphorylation” (Nature Communications, 2018).

B1: Full-length human Cdc37 [human] / Catalytic domain of bRaf [not stated] (parent complex)
chain 1: MVDYSVWDHIEVSDDEDETHPNIDTASLFRWRHQARVERMEQFQKEKEELDRGCRECKRKVAECQRKLKELEVAEGGKAELERLQAEAQQLRKEERSWEQKLEEMRKKEKSMPWNVDTLSKDGFSKSMVNTKPEKTEEDSEEVREQKHKTFVEKYEKQIKHFGMLRRWDDSQKYLSDNVHLVCEETANYLVIWCIDLEVEEKCALMEQVAHQTIVMQFILELAKSLKVDPRACFRQFFTKIKTADRQYMEGFNDELEAFKERVRGRAKLRIEKAMKEYEEEERKKRLGPGGLDPVEVYESLPEELQKCFDVKDVQMLQDAISKMDPTDAKYHMQRCIDSGLWVPNSKASEAKEGEEAGPGDPLLEAVPKTGDEKDVSV
chain 2: ITVGQRIGSGSFGTVYKGKWHGDVAVKMLNVTAPTPQQLQAFKNEVGVLRKTRHVNILLFMGYSTKPQLAIVTQWCEGSSLYHHLHIIETKFEMIKLIDIARQTAQGMDYLHAKSIIHRDLKSNNIFLHEDLTVKIGDFGLATVKSRWSGSHQFEQLSGSILWMAPEVIRMQDKNPYSFQSDVYAFGIVLYELMTGQLPYSNINNRDQIIFMVGRGYLSPDLSKVRSNCPKAMKRLMAECLKKKRDERPLFPQILASIELL

Variants of: B1
Assay: ITC; read off a plot

Variant	Kd [nM]
chain 1 MVDYSVWDHIEVSDDEDETHPNIDTASLFRWRHQARVERMEQFQKEKEELDRGCRECKRKVAECQRKLKELEVAEGGKAELERLQAEAQQLRKEERSWEQKLEEMRKKEKSMPWNVDTLSKDGFSKSMVNTKPEKTEEDSEEVREQKHKTFVEKYEKQIKHFGMLRRWDDSQKYLSDNVHLVCEETANYLVIWCIDLEVEEKCALMEQVAHQTIVMQFILELAKSLKVDPRACFRQFFTKIKTADRQYMEGFNDELEAFKERVRGRAKLRIEKAMKEYEEEERKKRLGPGGLDPVEVEESLPEELQKCFDVKDVQMLQDAISKMDPTDAKYHMQRCIDSGLWVPNSKASEAKEGEEAGPGDPLLEAVPKTGDEKDVSV [chain 1 Y298E]	~1900
chain 1 MVDESVWDHIEVSDDEDETHPNIDTASLFRWRHQARVERMEQFQKEKEELDRGCRECKRKVAECQRKLKELEVAEGGKAELERLQAEAQQLRKEERSWEQKLEEMRKKEKSMPWNVDTLSKDGFSKSMVNTKPEKTEEDSEEVREQKHKTFVEKYEKQIKHFGMLRRWDDSQKYLSDNVHLVCEETANYLVIWCIDLEVEEKCALMEQVAHQTIVMQFILELAKSLKVDPRACFRQFFTKIKTADRQYMEGFNDELEAFKERVRGRAKLRIEKAMKEYEEEERKKRLGPGGLDPVEVEESLPEELQKCFDVKDVQMLQDAISKMDPTDAKYHMQRCIDSGLWVPNSKASEAKEGEEAGPGDPLLEAVPKTGDEKDVSV [chain 1 Y4E, chain 1 Y298E]	~2100
chain 1 MVDESVWDHIEVSDDEDETHPNIDTASLFRWRHQARVERMEQFQKEKEELDRGCRECKRKVAECQRKLKELEVAEGGKAELERLQAEAQQLRKEERSWEQKLEEMRKKEKSMPWNVDTLSKDGFSKSMVNTKPEKTEEDSEEVREQKHKTFVEKYEKQIKHFGMLRRWDDSQKYLSDNVHLVCEETANYLVIWCIDLEVEEKCALMEQVAHQTIVMQFILELAKSLKVDPRACFRQFFTKIKTADRQYMEGFNDELEAFKERVRGRAKLRIEKAMKEYEEEERKKRLGPGGLDPVEVYESLPEELQKCFDVKDVQMLQDAISKMDPTDAKYHMQRCIDSGLWVPNSKASEAKEGEEAGPGDPLLEAVPKTGDEKDVSV [chain 1 Y4E]	~1000
